In publication PMC10397247:
Values belong to the binder of their own block, whether it stands above or below them.

Tests used:
4H3070-bH = biological target: T1, 4H3070-bH; assay: two-hybrid library CCNG1; conditions: mean of both orientations;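 note: natural log of median RNA to DNA barcode read ratio; higher means stronger binding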
T1 chain: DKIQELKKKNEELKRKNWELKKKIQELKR

4H145-bH = biological target: T2, 4H145-bH; assay: two-hybrid library CCNG1; conditions: mean of both orientations;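 note: natural log of median RNA to DNA barcode read ratio; higher means stronger binding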
T2 chain: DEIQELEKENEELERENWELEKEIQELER

4H3632-bH = biological target: T3, 4H3632-bH; assay: two-hybrid library CCNG1;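 note: natural log of median RNA to DNA barcode read ratio; higher means stronger binding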
T3 chain: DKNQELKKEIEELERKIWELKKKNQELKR

4H2691-bH = biological target: T4, 4H2691-bH; assay: two-hybrid library CCNG1;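 note: natural log of median RNA to DNA barcode read ratio; higher means stronger binding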
T4 chain: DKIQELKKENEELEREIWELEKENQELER

4H2619-bH = biological target: T5, 4H2619-bH; assay: two-hybrid library CCNG1;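 note: natural log of median RNA to DNA barcode read ratio; higher means stronger binding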
T5 chain: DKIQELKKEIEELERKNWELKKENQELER

4H496-bH = biological target: T6, 4H496-bH; assay: two-hybrid library CCNG1;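 note: natural log of median RNA to DNA barcode read ratio; higher means stronger binding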
T6 chain: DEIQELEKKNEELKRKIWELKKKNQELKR

4H342-bH = biological target: T7, 4H342-bH; assay: two-hybrid library CCNG1
T7 chain: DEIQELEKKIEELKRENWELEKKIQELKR

4H1193-AA = biological target: T8, 4H1193-AA; assay: two-hybrid library CCmax
T8 chain: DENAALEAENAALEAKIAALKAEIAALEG

4H4038-AA = biological target: T9, 4H4038-AA; assay: two-hybrid library CCmax; conditions: mean of both orientations
T9 chain: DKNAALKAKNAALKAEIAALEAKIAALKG

4H2705-AA = biological target: T10, 4H2705-AA; assay: two-hybrid library CCmax; conditions: mean of both orientations
T10 chain: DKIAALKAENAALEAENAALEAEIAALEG

4H337-AA = biological target: T11, 4H337-AA; assay: two-hybrid library CCmax; conditions: mean of both orientations
T11 chain: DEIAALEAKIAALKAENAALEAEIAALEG

O14-AA = biological target: T12, O14-AA; assay: two-hybrid library CCmax; conditions: mean of both orientations
T12 chain: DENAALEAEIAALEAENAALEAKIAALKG

4H2622-AA = biological target: T13, 4H2622-AA; assay: two-hybrid library CCmax; conditions: mean of both orientations
T13 chain: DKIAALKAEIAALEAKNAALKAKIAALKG

4H1385-AA = biological target: T14, 4H1385-AA; assay: two-hybrid library CCmax; conditions: mean of both orientations
T14 chain: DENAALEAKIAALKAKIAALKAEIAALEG

4H2736-AA = biological target: T15, 4H2736-AA; assay: two-hybrid library CCmax; conditions: mean of both orientations
T15 chain: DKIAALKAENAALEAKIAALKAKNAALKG

4H3625-AA = biological target: T16, 4H3625-AA; assay: two-hybrid library CCmax; conditions: mean of both orientations
T16 chain: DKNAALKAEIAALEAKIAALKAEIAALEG

4H1392-AA = biological target: T17, 4H1392-AA; assay: two-hybrid library CCmax; conditions: mean of both orientations
T17 chain: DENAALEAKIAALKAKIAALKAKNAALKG

4H_APH = biological target: T18, 4H_APH; assay: two-hybrid library CCmax; conditions: mean of both orientations
T18 chain: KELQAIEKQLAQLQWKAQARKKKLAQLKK

4H510-AA = biological target: T19, 4H510-AA; assay: two-hybrid library CCmax; conditions: mean of both orientations
T19 chain: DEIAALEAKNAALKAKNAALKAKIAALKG

4H_GCN4 = assay: two-hybrid library CCmax
4H_GCN4, sequence (chain, as listed by the source): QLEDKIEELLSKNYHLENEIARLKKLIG

O11-AA = biological target: T20, O11-AA; assay: two-hybrid library CCmax; conditions: mean of both orientations
T20 chain: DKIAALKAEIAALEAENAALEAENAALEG

4H1350-AA = biological target: T21, 4H1350-AA; assay: two-hybrid library CCmax; conditions: mean of both orientations
T21 chain: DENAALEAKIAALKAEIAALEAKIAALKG

4H3905-AA = biological target: T22, 4H3905-AA; assay: two-hybrid library CCmax; conditions: mean of both orientations
T22 chain: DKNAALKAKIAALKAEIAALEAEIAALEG

4H_BCR = biological target: T23, 4H_BCR; assay: two-hybrid library CCmax; conditions: mean of both orientations
T23 chain: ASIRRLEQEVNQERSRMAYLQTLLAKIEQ

4H3587-AA = biological target: T24, 4H3587-AA; assay: two-hybrid library CCmax; conditions: mean of both orientations
T24 chain: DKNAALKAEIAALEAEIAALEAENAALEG

GCN2_T = assay: two-hybrid library CCmax; conditions: mean of both orientations
4H43-AA = biological target: T25, 4H43-AA; assay: two-hybrid library CCmax; conditions: mean of both orientations
T25 chain: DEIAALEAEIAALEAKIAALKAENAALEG

4H3049-AA = biological target: T26, 4H3049-AA; assay: two-hybrid library CCmax; conditions: mean of both orientations
T26 chain: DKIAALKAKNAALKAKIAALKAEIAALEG

4H3590-AA = biological target: T27, 4H3590-AA; assay: two-hybrid library CCmax; conditions: mean of both orientations
T27 chain: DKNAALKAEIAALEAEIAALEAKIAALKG

4H2888-AA = biological target: T28, 4H2888-AA; assay: two-hybrid library CCmax; conditions: mean of both orientations
T28 chain: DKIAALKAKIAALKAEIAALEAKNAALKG

4H134-AA = biological target: T29, 4H134-AA; assay: two-hybrid library CCmax; conditions: mean of both orientations
T29 chain: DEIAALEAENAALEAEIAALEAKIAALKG

4H384-AA = biological target: T30, 4H384-AA; assay: two-hybrid library CCmax; conditions: mean of both orientations
T30 chain: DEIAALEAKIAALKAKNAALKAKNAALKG

O13-AA = biological target: T31, O13-AA; assay: two-hybrid library CCmax; conditions: mean of both orientations
T31 chain: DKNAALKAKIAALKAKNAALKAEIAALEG

4H451-AA = biological target: T32, 4H451-AA; assay: two-hybrid library CCmax; conditions: mean of both orientations
T32 chain: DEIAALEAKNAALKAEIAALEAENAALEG

interaction score (4H3070-bH): 1.19
interaction score (4H145-bH): -0.793
interaction score (4H3632-bH): -1.44
interaction score (4H2691-bH): -0.291
interaction score (4H2619-bH): -0.128
interaction score (4H496-bH): -0.316
interaction score (4H342-bH): -0.409
Binder: DEIQELEKENEELERENWELEKEIQELER [4H145-bH]

interaction score (4H1193-AA): -1.08
interaction score (4H4038-AA): 2.18
interaction score (4H2705-AA): -1.54
interaction score (4H337-AA): -1.69
interaction score (O14-AA): -1.3
interaction score (4H2622-AA): 1.87
interaction score (4H1385-AA): -0.776
interaction score (4H2736-AA): -0.353
interaction score (4H3625-AA): 0.75
interaction score (4H1392-AA): -0.855
interaction score (4H_APH): -1.85
interaction score (4H510-AA): -0.152
interaction score (4H_GCN4): -1.64
interaction score (O11-AA): -1.11
interaction score (4H1350-AA): 1.11
interaction score (4H3905-AA): -0.00198
interaction score (4H_BCR): -1.78
interaction score (4H3587-AA): 0.0373
interaction score (GCN2_T): -1.62
interaction score (4H43-AA): -0.557
interaction score (4H3049-AA): 1.47
interaction score (4H3590-AA): 1.11
interaction score (4H2888-AA): 0.331
interaction score (4H134-AA): 1.42
interaction score (4H384-AA): -1.19
interaction score (O13-AA): -0.387
interaction score (4H451-AA): -1.06
Binder: DENAALEAENAALEAKIAALKAEIAALEG [4H1193-AA]
